In the nanobody polyreactivity screen of Harvey et al. (2022):

Assay: yeast display, Sf9 membrane polyspecificity reagent, FACS + sequencing; frameworks hold sequencing errors
Outline: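 Galactose induction of a Saccharomyces cerevisiae BJ5465 synthetic nanobody display library ran 36–48 hours. The cells were then stained for 1 hour at 4 °C with 10% biotinylated, detergent-solubilized Sf9 membrane reagent, pulled down on streptavidin microbeads and FACS-sorted into low and high (top ~1%) gates on expression and reagent-binding fluorescence. Labels for polyreactivity follow the gate of origin.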

Sequence | polyreactivity (PSR sort gate)
QVQLVESGGGLVQAGGSLRLSCAASGITFKSNAMGWYRQAPGKERELVAAISRRASSTYYADSVKGRFTISRDNAKNTVYLQMNSLKPEDTAVYYCNAVLPVYRTNMDYWGQGTQVTVST | high polyreactivity
QVQLVESGGGLVQAGGSLRLSCAASGRIFPRNVMGWYRQAPGKERELVAAISSRGTRTYYADSVKGRFTISRDNAKNTVYLQMYSLKPEDTAVYYCAADGPYEGYDYWGQGTQVTVSS | high polyreactivity
QEQLQESGGGQVQAGGSLLLSCAASGNIIRYYYMGWYRQAPGKERELVAAITYGTSTNYADSVKGRFTISRDNEKNTVYLQMNSLKPEDSAVYYFAVVVNYGDPLVNWGQGTQVTVSS | high polyreactivity
QVQLVESGGGLVQAGGSLRLICAASGSIFGYNAMGWYRQAPGKERELVAVINASGASTYYADSVKGRFTISRDNAKNTVYLQMNSLKPEDTAVYYCAKDPFPFPGGDYWGHGTQVTVSS | low polyreactivity
QVQLVASGGGLVQAGGSLRLSCAASGRNFRSYVMGWYRQAPGKERDLVATITRSGGGTTYADSVKGRFTISRDNAKNTVYLHMKSLKAEDTAVYYCNAERRYSWYSQGDYWGQGTQVTVSS | high polyreactivity
QVQLVESGGGLVQAGGSLRLSCAASGQTIAAYVMGWYRQAPGKERELVARISRSGGSTYYADSVKGRFTISRDNAKNTVYLQMNSLKPEDTAVYYCAAARPYKTSLPGAPYDYWGQGTQVTVSS | low polyreactivity
QVQLVESGGGLVQAGGSLRLSCAASGGTFWKNAMGWYRQAPGKERELVAAIRSSSGNTYYADSVKGRFTISRDNAKNTVYLQMNSLKPEDTAVYSCARRYYDYGYDYYWGQGTQVTVSS | high polyreactivity
QVQLVESGGGLVQAGGSLRLSCAASGITFSYYAMGWYRQAPGKEREFVAAISWSGGSTYYADSVKGRFTISRDNAKNTVYLQMNSLKPEDTAVYYCAADRYPYGLDYWGQGTQVTVSS | high polyreactivity
QVQLVESGGGLVQPGGSLRLSCAASGRIFGWYARGWYRPAPGKERELVAAISRGGTRTNYADSVKGRFTISRDNAKNTVYLQMNSLKPEETAVYYCAARRYSRDFDYWGQGTQVTVSS | high polyreactivity
QVQLVESGGGLVQAGGSLRLSCAASGSTFTWYAMGWYRQAPGKEGELVAAISRGGSTNYADSVKGRFTISRDNAKNTVYLQMNSLKPEDTAVYYCAAESYWRDDYWGQGTQVTVSS | low polyreactivity
QVQLVESGGGLVQAGGSLRISCAPSGFTFGHYAMGWYRQAPGKERELVAAISYSGVRTYYADSVKGRFTISRDNAKNTVYLQMNSLKPEDTAVYYCNKYPAHYQTRRYDYWGQGTQVTVSS | high polyreactivity
QVQLVESGGGLDQAGGSLRLICAASGRTFATNTMVWYRQAPGKERELVAAITFSGGSTYYADSVKGRFTISRDNEKNSVYLQMNSLKPEETAVYYCNVRSPYYSYRYRYGYWGQGTQVTVSS | high polyreactivity
QVQLVESGGGLVQAGGSLRLSCAASGSTFQFNTMGWYRQAPGKERELDAAITYSGGSTYYADSVKGRFTISRDNAKNTVYLQMNSQKPEDTAVYYCAADIITYDYPSYDGYIRYPYYYWGQGTQVTVTS | low polyreactivity
QVQLVESGGGLVQAGGSLRLRCAASGRTFRVYAMGWYRQAPGKERELVATITSSGGSTYYADSVKGRFTISRDNAKNTVYLQMNSLKPEDTAVYYCNVSVYNNYDSSYYYWGQGTQVTVSS | low polyreactivity
QVQLVESGGGLDQAGGSLRLSCAASGITFQSNAMGWYRQAPGKERELVAGISGSGARTYYADSVKGRFTISRDNAKNTVYLQMNSLKPEDTAVYYCAKKSSYRYGYWGQGTQVTVSS | high polyreactivity
QVQLVESGGGLVQAGGSLRISSAPSGITYYGNVMGWYRQAPGKERELVADISWSGGRTYYADSVKGRFTISRDNAKNTVYLQITSLKPEVTALYDCAAEGTTNRGVYASYDYWGQGTQVTVSS | low polyreactivity
QVQLVESGGGVVQAGGSLRLSCAASGSTFSAYTMGWYRQAPGKERELVAAISRSGVSTYYADSVKGRFTISRDNAKNTVYLQMNSLKPEDTAVYYCAAPYFVSYQGYDYCGQGTQVTVSS | high polyreactivity
QVQLVESGGGLVQAGGSLRLSCAASGFIFVGYAMGWYRQAPGKERELVAAITDGGRTKYADSVKGRFTISRDNAKNTVYLQMNSLKPEDTAVYYCAADDLHTYYTLDYWGQGTQVTVSS | high polyreactivity
QVQLVESGGGLVQAGGSLRLSCAASGSFFHDYSMGWYRQAPGKERELVAAIRWSGGSTYYADSVKGRFTISRDNAKNTVYVQMNSLKPEDTAVYYCNAVTFGRDNVQLVKFGYWGQGTQVTVSS | low polyreactivity
QVQLVESGGGLVQAGGSLRLSCAASGRIFYWYAMGWYRQAPGKERELVATINQSGSSTYYADSVKGRFTISRDNAKNTVYLQMYSLKPEDTAVYYCNAGGQRPHSVGLVGEMGYWGQGTKVTVSS | high polyreactivity
QVQLQESRGCLVQAGGSLRLTCAASGTISDSGLMGWYRQAPGKERELVAGISSGGITNYADSVKGRFTLSRDNAKNSVYLQMNSLKPEDTAVYWGQGTQVTVSS | low polyreactivity
QVQLVESGGGLVQAGGSLRLSCAASGFIFWLYAMGWSRQAPGKERELVASINWSGGDTYYADSVKGRFTISRDKAKNTVYLQMNSLKPEDTAVYYCAARYWSIYDYWGQGTQVTVSS | low polyreactivity

Sequence | polyreactivity (PSR sort gate)
QVQLVESGGGLVQAGGSLPLSCAASRRTLYTNTMGWYRQAPGKESELDAGISKRGGSTYYADSVKGRFTITRDTAKNTVYLQMNSRKPEDTAVYYCNAPVSYWSRFRSPIYEYWGQGTQVTVSS | high polyreactivity
QVQLVESGGGLVQAGGSLRLSCAASGSTFPFYALGWYRQAPGKERELVAVIRGSGGRTYYADSVKGRFTISRDNAKTTVYLQMNSLKPEDTAVYYCAVKLARLYDSGYNYWGQGTQVTVSS | high polyreactivity
QVQLVESGGGLVQAGGSLRLSCAASGRTFGQNTMGWYRQAPGIERELVAAINWSGGSTYYADSVKGRFTISRDIAKNTVYVQMNSLKPEDTAVYYCAVRGYWGQGTQVTVSS | low polyreactivity
QCQLVVSGGGLVQAGGSLRISCSASGSTFGVYSMGWYRQAPGKERELFATINSGGSTNYADSVKGRFTISRDNAKNTVYLQMNSLKPEDTAVYYCASGPFWQDFYVYEYDYWGQGTQVTVSS | low polyreactivity
QVQLVESGGGLVQAGGSLRLSCAASGFTFLRYAMGWYRQAPGKERELVAAITGSGGSTYYADSVKGRFTISRDNAQNTVYLQMNSLKPEDTAVYYCSIVSKFTGDYGYWGQGTQVTVSS | high polyreactivity
QVQLVESGGGLVQAGGSLRLSCAASGSIFEGYAMGWYRQAPGKERELVAVITTSGGDTYYADSVKGRFTISRDNAKNTVYLQMNSLKPEDTAVYYCNAADAVSDYPDFHIYDYWGQGTQVTVSS | low polyreactivity
QVQLVESGGGLVQAGGSLRLSCAASGFTFSYYAMGWYRQAPAKEREVVAAISRSGGSTYYADSVKGRFTISRDNAKNTVYFQMNSLIPEDTAVYYCATDLYYRHGYCGQGTQVTVSS | high polyreactivity
QVQLVESGGGLVQAGGSLRLSCAASGITFKRYTMGWYRQAPGKERELVADITWSGGSTYADSVKGRFTISRDNAKNTVYLQMNSLKPEDTAVYYCAAEWQTWYGVEYDYWGQGTQVTVSS | high polyreactivity
QVQLVESGGGLVQAGGSLRLSCAASGRTFDHYAMGWYRQAPGKERELVAAITSGGSTYYADSVKGRFTISRDNAKNTVYLQMNSLKPEDTAVYYCNKDSSFWGCYIAQVNERDYWGQGTQVTVSS | low polyreactivity
QVQLLESGGGLVQAGRSLRLSCAASGSIFWYAMGWYRQAPGKERELVATITSGASTTYADSVKGRFTISRDNAKNTVYLQMNSLNPEDTAVYYCAKRNYLSYRYDYWGQGTQVNVSS | low polyreactivity
QVQLVESGGGLVQAGGSLRLSCAASGLIYPVYAMGWYRQAPGKEREFVAAITYDGGNTYYADSVKGRFTISRDNAKNTVYLQMNSLKPEDTAVYYCAAEGVELISTRDPHDDYWGQGTQVTVSS | low polyreactivity
QVHLVESGGGLVQAGGSLRLTCAASGIIFLRYAIGWYRQAPGKERDLVAAITRGGITYYADSVKGRFTISRDNAKNTVYLQMNSLKPEDTAVYYCAATYSGNYSMCRGYDYWGQGTQVTVSS | low polyreactivity
QVQLVESGGGLVQAGGSLRLSCAAAGTTFSHNTMGWYRQAPGKERELVAAITSGGTTYYADSVKGRFTISRDNAKNTVYLQMMSLKPEDTAVYYCAALRPRGGYYYWGQGTQVTVSS | high polyreactivity
QVQLVESGGGLVQAGGSLRLICAASGSTNYRYAMGWYRQAPGKERELVATISSTGARTNYADSVKGRFTISRDNAKNTDYLQMNSLKPEDTAVYYCAASAPYIYYWGQGTQVTVSS | high polyreactivity
QVQLVESRGGLVQAGGSLRLSCAASGFIFSRYGMGWYRQAPGKERELVAAISRSGGSTYYADSVKGRFTISRDNAKNTVYVQMNSLKPEDTAVYYCATAYSWRNADWFAYSYDYWGQGTQVTVSS | low polyreactivity
QVQLVESGGGLVQAGGSLRLSCAASGGTFQAYAMGWYRQAPGKERELVAAISRSGGRTYYADSVKGRFTISRDNAKNTVYLQMNSLKPEDTAVYYCNAGAYYRNEMDYWGQGTQVTVSS | high polyreactivity
QVQLGESGGGLVQAGGSLGLSCAASGGTLRVNTMGWYRQAPGKERELVAAISTRSGRTYYADSVKGRFTISRDNAKYTVYLQMNSLKPEDTAVYYCAATLYRRRSAFDGDWGQGTQVTVSS | high polyreactivity
QVQLVESGGGLVQAGGSLRLSCAASGITFRVYVMGWYRQAPGKERELVAAITSGTSTYYADSVKGRITISRDNAKNTVYLQMNRLKPEDTAVYYCAALIFYGDYIEYDYWGQGTQVTVSS | low polyreactivity
QVQLVESGGGLVQAGGSLRLSCAASGLTFNVNAMGWYRQAPGKERELVARINTSGGSTSYADSVKGRFTISRDNAKNTVYLQMNSLKPEDTAVYYCAADRARYYSEYDYWGQGTQVTVSS | low polyreactivity
QVQLVESGGGLVQAGGSLRLSCAASGSIFTFYAMGWYRQAPGKERELVATITWLGGSTYADAVKGRFTISRDNAKNTVYLQMNSLKPEDTAVYYCNADYRSYWYKLDYWGQGTQVTVSS | high polyreactivity
QVQLVESGGGLVQAGGSLRLSCAASGFIFDYYAMGWYRQAPGKERELVAAITSRGGSTYYADSVKGRFTISRDNAKNTVYLQMNSLKPEDTAVYYCNKDPHYYATGRFYYWGQGTQVTVSS | high polyreactivity
